Results published in publication PMC9595545, “Nonamer dependent RAG cleavage at CpGs can explain mechanism of chromosomal translocations associated to lymphoid cancers”.

Columns and labels:
[1] = target: T1, RAG1 nonamer binding domain (NBD) (UniProt P15919 389-456); assay: EMSA; RAG EMSA: 22.5 mM MOPS-KOH pH 7.0, 20% DMSO, 2.2 mM DTT, 50 mM K-glutamate, 2% glycerol, 100 ng/ml BSA, 2 h, 25 C; NBD EMSA as in earlier work; BLI: SAX sensors, NBD 0.36-2.22 nM, 1:1 fit, buffer not stated; conditions: protein: recombinant, tags: His (pET28a, Ni-NTA), chain copies: 2, T/G mismatch
T1 sequence: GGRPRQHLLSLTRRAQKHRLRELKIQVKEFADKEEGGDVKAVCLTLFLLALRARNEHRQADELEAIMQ

[2] = target: T1, RAG1 nonamer binding domain (NBD); assay: BLI; RAG EMSA: 22.5 mM MOPS-KOH pH 7.0, 20% DMSO, 2.2 mM DTT, 50 mM K-glutamate, 2% glycerol, 100 ng/ml BSA, 2 h, 25 C; NBD EMSA as in earlier work; BLI: SAX sensors, NBD 0.36-2.22 nM, 1:1 fit, buffer not stated; conditions: protein: recombinant, tags: His (pET28a, Ni-NTA), chain copies: 2, biotin (BLI)

B1: MTCI (NM50/NM51) (dsDNA)
DNA 1: TTCAGGGAGCTCTTGTGTTCAAACCACGAAGAAGACGCAGTTTAATCTCA
DNA 2: TGAGATTAAACTGCGTCTTCTTCGTGGTTTGAACGCAAGAGCTCCCTGAA
binding result ([1]; label: 5'-32P on NM50): binds

B2: MTCIV (NM92/NM93) (dsDNA)
DNA 1: GGAGGGGCTTCCCCTTGTTCACGCCAATGGCAGCGCCAGGTGTTCAGGGAGCTCTTGCGTTCAAACCACGA
DNA 2: TCGTGGTTTGAACGCAAGAGCTCCCTGAACACCTGGCGCTGCCATTGGCGTGAACGAGGGGAAGCCCCTCC
binding result ([1]; label: 5'-32P on NM92): binds

B3: KI (AP66/AP67) (dsDNA)
DNA 1: GAAAAAAGTGGCTCCCTGCCCAAGTATCCCTGTAAAACAAAAACCAAAAG
DNA 2: CTTTTGGTTTTTGTTTTACAGGGATACTTGGGCGGGGAGCCACTTTTTTC
Kd ([2]; label: 5'-32P on AP66 (EMSA), T/G mismatch): 0.36 nM

B4: 12RSS (AKN1/AKN2) (dsDNA)
DNA 1: GATCAGCTGATAGCTACCACAGTGCTACAGACTGGAACAAAAACCCTGCT
DNA 2: TAGCAGGGTTTTTGTTCCAGTCTGTAGCACTGTGGTAGCTATCAGCTGAT
Kd ([2]; label: 5'-32P on AKN1 (EMSA)): 0.7 nM

B5: FI (HK5/HK6) (dsDNA)
DNA 1: GGCCCTGCTTGACTGTGTCACAACCCCATCCAGTGGCCCTGAACTTGG
DNA 2: CCAAGTTCAGGGCCACTGGATGGGGTTGTGACGCAGTCAAGCAGGGCC
Kd ([2]; label: 5'-32P on HK5 (EMSA), T/G mismatch): 0.69 nM

B6: MTCIII (NM90/NM91) (dsDNA)
DNA 1: TCACGCCAATGGCAGTGCCAGGTGTTCAGGGAGCTCTTGCGTTCAAACCACGA
DNA 2: TCGTGGTTTGAACGCAAGAGCTCCCTGAACACCTGGCGCTGCCATTGGCGTGA
binding result ([1]; label: 5'-32P on NM90): binds

B7: MTCII (NM88/NM89) (dsDNA)
DNA 1: TGCCATTGGCGTGAATGAGGGGAAGCCCCTCCTGACAGCTGGATGGTAGGACAAAGCCCTCTA
DNA 2: TAGAGGGCTTTGTCCTACCATCCAGCTGTCAGGAGGGGCTTCCCCTCGTTCACGCCAATGGCA
binding result ([1]; label: 5'-32P on NM88): binds
